The results in this text go back to publication PMC11004252.

For this test, the target named is phospho-Ser 2 carboxy-terminal domain (CTD) RNA polymerase II (human (endogenous in hSAECs)), P24928. Description: proximity ligation; Duolink in situ PLA, mouse anti-IRF1 and rabbit anti-pSer2 Pol II Abs, fixed and permeabilized hSAECs, mock or RSV infected (MOI 1, 24 h), solvent. Conditions: remark: other sources report otherwise.

B1: interferon regulatory factor 1 (IRF1), P10914 1-325 (natural protein)
chain: MPITRMRMRPWLEMQINSNQIPGLIWINKEEMIFQIPWKHAAKHGWDINKDACLFRSWAIHTGRYKAGEKEPDPKTWKANFRCAMNSLPDIEEVKDQSRNKGSSAVRVYRMLPPLTKNQRKERKSKSSRDAKSKAKRKSCGDSSPDTFSDGLSSSTLPDDHSSYTVPGYMQDLEVEQALTPALSPCAVSSTLPDWHIPVEVVPDSTSDLYNFQVSPMPSTSEATTDEDEEGKLPEDIMKLLEQSEWQPTNVDGKGYLLNEPGVQPTSVYGDFSCKEEPEIDSPGGDIGLSLQRVFTDLKNMDATWLDSLLTPVRLPSIQAIPCAP
modifications: here or on the partner: phospho-Ser 2 of the carboxy-terminal domain (CTD)
Take B1: the PLA foci/nucleus (RSV infected) amounted to 24 foci/nucleus; the PLA foci/nucleus (mock infected) amounted to 6.3 foci/nucleus; the fold increase of PLA complex, RSV against mock came out at 25 fold; the percent of cells with PLA complexes (uninfected) is > 90 % of cells.
